Data taken from a protein production outcome set (Wang et al. 2014).

Experiment: label from the status in PepcDB records

| Sequence | protein production |
| --- | --- |
| MKYTIEEIRQMQEGQTFDCKSILIEPKHLATIIVAMANADGGMIAVGISDKTRRIEGVNQDKEHLNDILRTPLDFCVPSVSVTTDYVPCTDAEGRDNRVLLMHIPASPRLHANQADEVFWRVGDKSRKLTFDERLQLMYDKGERYYEDSTAYDATLDDIDMDAVKAYMKRIGYGKSAMEYLQENKGFVTYKGDVPQVSAACILLFGKHPQTFFPRARVRFIKYFGTEEKVGREMNVIKDVTFDGRILEQIQKTVEYLETQVKEHSYLGEDGIFKTDREYPKFVIQEMVVNSVCHRDYSIKGTEIQIKMFDDRLVFETPGKLPGIVRTDNIRHTHFSRNPKIAEFLKAYDYVKEFGEGVDRMCRELSALGVKEPQYNLVAFIMKATVCAKVLEERQGTNHFDQKRPESDQKSDQMRIILELIKSNPNISRTELSEKTGLHDSSVKRRLKTLVDEGLIQRVGPDKGGQWKVIGSLLEHHHHHH | not failed |
| MEEGKMDENEWGYHGEGNKSLVVAHAQRCVVLRFLKFPPNRKKTSEEIFQHLQNIVDFGKNVMKEFLGENYVHYGEVVQLPLEFVKQLCLKIQSERPESRCDKDLDTLSGYAMCLPNLTRLQTYRFAEHRPILCVEIKPKCGFIPFSSDVTHEMKHKVCRYCMHQHLKVATGKWKQISKYCPLDLYSGNKQRMHFALKSLLQEAQNNLKIFKNGELIYGCKDARSPVADWSELAHHLKPFFFPSNGLASGPHCTRAVIRELVHVITRVLLSGSDKGRAGTLSPGLGPQGPRVCEASPFSRSLRCQGKNTPERSGLPKGCLLYKTLQVQMLDLLDIEGLYPLYNRVERYLEEFPEERKTLQIDGPYDEAFYQKLLDLSTEDDGTVAFALTKVQQYRVAMTAKDCSIMIALSPCLQDASSDQRPVVPSSRSRFAFSVSVLDLDLKPYESIPHQYKLDGKIVNYYSKTVRAKDNAVMSTRFKESEDCTLVLHKV | failed |
| MTIPLIIGGVLLAILILLILVFITKYRTVGPDEALIVTGNWLGGGKNVVTTDDGKKIKIIRGGGTFVVPIMQRAEPLSLLNYKLEVGTRDTYTKQGVPVTVNGVSIIKVGSTIEEVSTAAEQYLGKETEELKVEAKEVLEGHLRAILSSMTVEDAYSNREQFAQKVHEVASTDLKKMGLRIVSFTIKEIMDKNGYLDALGQPQIATVKRDATIANAEREKEARIEKARAEKEAKEAEYQRDAQIAEAEKHKELKVQSYKREQEQARADADLSYELQQAKAQQGVTEEQMRVKIIEREKQIELEEKEIARREKQYDAEVKKKADADRYAVEQSAEAEKVKQIKKADADQYKIEAEARARAEEVRVEGLAKAEIEKAQGQAKAEVQKAQGTAEADVIRLKGLAEAEAKQKIAEAFELYGQAAIMDMVLKMLPSYAKEVASPLSNIDKITVVDTGGGGKNSGAGKVAGYATDLMATMQETLKASSGIDLKELLEGFAGKGAVQQLSSDKPVVSVVEDKKKEVEKDKE | failed |
| MSLNYIEDIKNYIPFNEQEERDKELFLRCLNDFHDILTRDNTIAHLTSSAFAVNKERNKFLMIHHNIYNSWAWTGGHSDNEKDQLKVAIKELKEETGVKNPTPLLDKAFALDVLTVNGHIKRGKYVSSHLHLNLTYLIECSEDETLMLKEDENSGVMWIPFNEISKYCSEPHMIPIYEKLINKLKTQSKEGHHHHHH | not failed |
| MENRRIVIITGANSGIGKEAAQRFANEGDHVIMACRNIAFSRKVQHDIIAASGNDHVDLLELDVSSFASIRTFCTTFNSQYKRLDILIHNAAYFNHGEPYRLSPDGIELTFATNVFGPYLLTSLLRDRLKQSEDPRILHAGSNIIKHFFDPKQTFDLDLLQGNHGTKSYSVYKMYCQSKMALMLLTFQMAEVFADDGIKVNALQINGAKMSKRTIQKVKPWWRPIAWGQNLFFPPPSYMADKYFTICTSDKYKQTTGKLFNDKLEIMEPSPTHYPGFFKQMKLLLGSNVYPAYENTNIREKLWALCKELVGELEHHHHHH | not failed |
| MTNWLIAYQGEPGAYSEIAALRFGEPLPCESFDDVFSAVTEQKADYAVIPIENSLGGSIHQNYDLLLRRPVVILAETFVKVEHCLLGLPGASVETATKAMSHPQALVQCHNFFATHPQIRAEAAYDTAGSAKMVAESRDKSALAIASKRAGELYGLDILKENLADEEWNITRFFCIAHENNPDISHLKVRPDVARQKTSIVFALPNEQGSLFRALATFALRGIDLTKIESRPSRKKAFEYLFYADFIGHREDQNVHNALENLREFATMVKVLGSYGVVNP | not failed |
| MNVVIVRYGEIGTKSRQTRSWFEKILMNNIREALVTEEVPYKEIFSRHGRIIVKTNSPKEAANVLVRVFGIVSISPAMEVEASLEKINRTALLMFRKKAKEVGKERPKFRVTARRITKEFPLDSLEIQAKVGEYILNNENCEVDLKNYDIEIGIEIMQGKAYIYTEKIKGWGGLPIGTEGRMIGILHDELSALAIFLMMKRGVEVIPVYIGKDDKNLEKVRSLWNLLKRYSYGSKGFLVVAESFDRVLKLIRDFGVKGVIKGLRPNDLNSEVSEITEDFKMFPVPVYYPLIALPEEYIKSVKERLGL | not failed |
| MDMKKYILSLSLLTVINSSAIATTQEGEEAYNKGYYEKAFILLSPEADKGDAKAQYLLGKMYYNAQGVTYNPEKTEQLLLASANQGNVDAQVLLAGFYWYLNTPEGYKKAFEWYQKAADQNNADGQYGLGYMYDTGTGVPQNSDTAMVWYKKAAEQGNSNAALAIGYNYDTGTGVKKDKTQALNWYAKAADLGNASAQYNLGLMYEQGDGVPKDYQKAAEYFEKAANQGHAKSQLELGYLYDSGKLGKSDLQKAAFWYQKSADLGNANAQFNLADMYFYGDGVGKSLEQSVYWMQKAAEQGYGKAQNQLGIYYRDGIGVAADPVKAYAWFTAAKNNGFEKAASNASDLEKSMNPEDLSKARILGQQYTDNYKAKK | failed |
| MKRLPLLAALPLLCASALSAQPLMSVGYFNGGGDVTAGPGGDIDKLDVRQITHLNYSFGLIYNDEKDETNAALKDPAHLHEIWLSPKVQADLQKLPALRKQNPDLKVLLSVGGWGARGFSGAAATAESRAVFIRSAQKIIQQYGLDGIDLDWEFPVNGAWGLVASQPADRDNFTALLKSLREAVGEQKLVTIAVGANAESPKSWVDVKAVAPVLNYINLMTYDMAYGTQYFNSNLYDSSHWPTVAAADKYSADFVVNNYLAAGLKPSQMNLGIGFYGRVPKRAVEPGIDWTKADAQNNPVTQPYFGPQQIALFASLGYDLSKDTYVKYNDIVGKLLNDPQKRFTEHWDDEAKVPWLSVQSAEGKPLFALSYENPRSVAIKADYIKAKGLAGAMFWEYGADDQNQLARQLAESLGIKH | not failed |
| DFNPEIFQLESYFKSKYHLKDIEIVSSRKDSDTSEIEKDLAHVAAAMIRKKIKENDKVGIAWGRTLSKVVEAMRPHPVSQVSFVPLAGGPSHINARYHVNTLVYEMSRRFQGSCTFINATLVQENANLAKGILTSKYFEGLMDNWEKLDVAIVGVGGKPKSNEQQWLDLLNQDDFQCLDEEAAVGEITCRFFNHSGDPVNQHLAKRTIGITLEQLQKVPNRIAVAHGNYKAAALLAVLKKGYINHLVTDFSTALNILRLDKDTFVDTIYQKS | failed |
| MPSLTTLRSRELGPETFIPYVRHVDESTIALDSRALMVMIALEGVSFETADILDLNALHRDLNTLYRNIADERLALWTHLIRRRDNSYPEGTFATPFSAALNDKYRERMVGEDLFRNDLYLSILWSPARDPADKAAKLLSRLRRARRVGTELDEGALKHLRDKVIDVTAALRRFEPRVLTLYEHDGLMFSEPSEVLHQLVGGRREPIPLTEGHIASAIYSDRVIVGRETIEIRHEADSRYAGMLSFKEYPARTRTGMLDAVLTSPFELILAQSFSFVSKADARMIMGRKQNQMVSSGDKAASQIEELDGAMDDLESNRFVFGEHHLTLSVFAPSVKELTDNLAKARASMTSGGAVVAREDLGLEAAWWAQLPGNFRYRARSGAITSRNFAALSPFHSYPLGQKDGNEWGPAVALLKTASGSPYYFNFHYGDLGNTFVCGPSGAGKTVLLNFMLSQLEKHDPHVVFFDKDRGADLYVRAAGGTYLPLKNGIPTGCTPLKALELTPENKVFLTRWVGKLVGSATRELSVTELRDISSAIDGLADLPVERRTIGALRTFLDNTNPEGIAARLRRWERGGPLGWVFDNVIEDIGFGEFGGGKLVGYDMTDFLDNEEIRAPLMAYLFHRVEQLIDGRRIIIVIDEFWKALQDEGFRDLAQNKLKTIRKQNGLMLFATQSPRDAIVSPIAHTIIEQCPTQIFLPNSRGNHGDYVDGFKLTEREFELVARELSIESRRFVLKQGHNSVVAELDLKGLDDELAILSGRTANVELADAIRAEVGSNAKDWLPVFQQRRSATLEHHHHHH | failed |
| MEKIIVRGGKRLNGTVRVEGAKNAVLPIIAAALLASDGKNVLSEVPVLSDVYTINEVLRHLNAEVVFENNQVTIDASKELNIEAPFEYVRKMRASVQVMGPLLARNGRARIALPGGCAIGSRPIDQHLKGFEAMGAKVQVGNGFVEAYVEGELKGAKIYLDFPSVGATENIMSAATLAKGTTILENAAKEPEIVDLANFLNAMGAKVRGAGTGTIRIEGVDKLYGANHSIIPDRIEAGTFMVAAAITGGDILIENAVPEHLRSITAKMEEMGVKIIEENEGVRVIGPDKLKAVDIKTMPHPGFPTDMQSQMMALLLQADGTSMITETVFENRFMHVEEFRRMNADIKIEGRSVIMNGPNSLQGAEVGATDLRAAAALILAGLVSEGYTRVTELKHLDRGYVDFHKKLAALGATIERVNEKVEEVKEQEVSDLHA | not failed |
| MTSALNRLQPLNGNNMKLKTLLLFVALIQSVVSMAQQDWKGDYTRAKQVYQLQKYEIAMEYFLPVTSPDAANPYASYAQYYYSLSAYKAGKYNEARQMLLQLINRDPNWKQISEAHYLLAGVYFELKQYRFGMTSLTFVQGMESSVTTFRQSYYAKIAPLDTLIKLQRVYSSDKELAKALFNQLAAYPVNSKNNMLYEYLAQEFKFTKLNRTVTYVTKTEYHVAVILPFNLSESNSENYKSGYAYEMYQGILTAVDSLKEDGVTIKIHTYDADRDVMKIQAILNYPEMKGMDLIIGPLFPSLIPYVTNFGELNNIPVINPISFNSNIIENKTQTLLFQPTLESIAGQVSSFAKEKFVYRKNSSKDNDLKPKNNVLIFYSTELKDSLLAVYYRDSLQVKGFKVSKFVKVTKENIGTVGKIFSDSISLLTTSHVFVASGEPVLASNIVSALEISRQNVPVITKSDWLDINNQTYEQFERRNIYIIYPDYFAFYTDAYRSFKAAYIKKYNVYPSKYTIIGYELMSLVGDKMRTAGTGYFNLMRTSPVSKGHFTAGYDFSKKPCNNYVPIYYFSDLKLTLANPFDEK | failed |
| MSRDGGDVIETAVKSLGKGFDLTADFRLKYCKDGDGSAGDDRLVVLDQTQNRELHIPGFGVFQNVSADINCDKGERTRFRSDILDFNKMSEYFNQRSSVTGKIPSGNFNATFGFQSGSWATDAANVKSLGLDASVVTLFNLHIHNPNRLRLTDRVRNAVPSSWDPQLLARFIERYGTHVITGVSVGGQDVVVVRQDKSSDLDNDLLRHHLYDLGDQLFTGSCLLSTRRLNKAYHHSHSQPKFPEAFNVFDDKQTVAFNNFSINSQNGITVICAKRGGDGRAKSHSEWLITVPDKPDAINFNFIPITSLLKDVPGSGLLSHAMSLYLRYKPPLMDLQYFLDFSGPRAWAPVHNDLPFGAAPNMASAYPALHINFMGPKLYVNTTPVTSEKNPVTGMRFFLEGKKCNRLAIHLQHLDNTRTTVGEKITDEHIWRGSDQITDNDRYFEPLNGKKFSHVCTVPVKYDPNWIKTTSNHKSQNDVAFIVTGAQLEVKKHGSKSVLHLRLRYTKVSDHYVVQNSWVHGPIGTSQKSGIFSSMSMPLTSGSVHHNMIQKDKNEVVLDSGVFPGGPPVPANNKIVKFVDLSQLCRGPQHSPGHWLVTGVRLYLDKGKLCLHVKFALLHRQRLLVSS | failed |
| MTKFYKFLISIIILALVCLIFFLAKSNILNLDSLKNLILSSGYFAPLIYIIAFALVPLTFFPDSVLAILGGSIFGLGGGFLYTSIGALIGGSISFFISRILGQSFVEKFENDKLKNIQELLKDNGFLMILLLRLIPLFPFDLISYGAGLTKISYKDFALGTLIGTIPGILVFVNLGAQWITFNKTSIYLSVSLLILFIIVSVFLKKIYINKHLAKEN | failed |
